Experimental data as given in patent US20160193316A1 (priority 1994, published 2016).

Key:
[1] = biological target: T1, DRB1*1302 (DR6w19) (Homo sapiens, UniProt P01903+P01911, A100E/A169T/K41T/L162R/M171V/P40S/Q125H/Q178H/Q39Y/Q99D/R42S/S66N/T262R/V115G/W38E/Y61H); experiment: HLA class II peptide binding assay; settings: for DR6w19 binding information: unit not given; for DR6w19 binding data: Table XIXb
T1 construct: endogenous in cells; host or cells: H0301

[2] = biological target: T2, DRB1*1501 (DR2w2β1) (Homo sapiens, UniProt P01903+P01911); experiment: HLA class II peptide binding assay; settings: for DR2w2β1 binding data: Table XIXb; for DR2w2β1 binding information: unit not given
T2 construct: expressed in transfected cells; host or cells: L466.1 (fibroblasts)

[3] = biological target: T3, DRB1*0101 (DR1) (Homo sapiens, UniProt P01903+P01911, A100R/D57E/F55L/F60I/F76Y/I96L/L162R/M171V/P40L/Q125E/R42F/V115G/Y59C); experiment: HLA class II peptide binding assay; settings: for DR1 binding data: Table XIXb, Malaria Super Motif Peptides With Binding Data; for DR1 binding information: unit not given
T3 construct: endogenous in cells; host or cells: LG2
T3 sequence (P01903 26-254 partner, other chains not shown): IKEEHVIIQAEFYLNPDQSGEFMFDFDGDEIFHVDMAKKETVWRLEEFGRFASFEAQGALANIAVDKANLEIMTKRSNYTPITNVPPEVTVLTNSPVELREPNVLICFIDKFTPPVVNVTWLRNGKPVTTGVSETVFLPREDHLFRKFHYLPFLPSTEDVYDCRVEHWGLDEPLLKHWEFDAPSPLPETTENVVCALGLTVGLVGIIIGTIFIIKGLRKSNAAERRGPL

[4] = biological target: T4, DRB1*0802 (DR8w2) (Homo sapiens, UniProt P01903+P01911, A100R/A103L/A169T/F76Y/H45Y/I96F/K41T/L162R/M171V/P40S/Q125H/Q178H/Q39Y/Q99D/R218S/R42G/S66Y/V115G/W38E); experiment: biochemical; assay type: binding
T4 construct: endogenous in cells; host or cells: OLL

[5] = biological target: T5, DRB1*0701 (DR7) (Homo sapiens, UniProt P01903+P01911, A100R/A102G/A103Q/D57E/D86V/E43K/F76Y/K127E/L162R/M171V/P40G/Q125H/Q99D/R33Q/R42Y/R54Q/S133A/S66F/T210M/V115G/Y107V/Y59L/Y89S); experiment: biochemical; assay type: binding
T5 construct: endogenous in cells; host or cells: Pitout

[6] = biological target: T6, DRB1*0901 (DR9) (Homo sapiens, UniProt P01903+P01911, A100R/A103E/D57H/D86V/F55Y/F60I/F76Y/I96F/K127E/L162R/M171V/P40D/Q125H/Q99R/R33Q/R42F/S133A/S66N/T210M/V115G/W38K/Y107V/Y59G/Y89S); experiment: biochemical; assay type: binding
T6 construct: endogenous in cells; host or cells: HID

[7] = biological target: T7, DRB1*1101 (DR5w11) (Homo sapiens, UniProt P01903+P01911, A100R/A169T/A87E/I96F/K41T/L162R/M171V/P40S/Q125H/Q178H/Q39Y/Q99D/R42S/S66Y/T262R/V115G/W38E); experiment: biochemical; assay type: binding
T7 construct: endogenous in cells; host or cells: Sweig
T7 sequence (P01903 26-254, other chains not shown): as the sequence (P01903 26-254 partner, other chains not shown) above

[8] = biological target: T8, DRB1*0301 (DR3) (Homo sapiens, UniProt P01903+P01911, A100K/A102G/A103R/A169T/F55Y/I96L/K41T/L162R/M171V/P40S/Q125H/Q178H/Q39Y/R42S/S66N/T106N/T262R/W38E/Y61H); experiment: HLA class II peptide binding assay (pH 4.5); settings: for DR3 binding data: Table XIXb; for DR3 binding information: unit not given
T8 construct: endogenous in cells; host or cells: MAT

[9] = biological target: T9, DRB1*0405 (DR4w15) (Homo sapiens, UniProt P01903+P01911, A100R/A169T/D86S/F76Y/I96L/K127E/L162R/M171V/N62H/P40V/Q125Y/R42H/S133A/S149N/S66Y/V115G/V209L/W38E); experiment: HLA class II peptide binding assay; settings: Table XIXb; DR4w15
T9 construct: endogenous in cells; host or cells: KT3

[10] = biological target: T10, DRB5*0101 (DR2w2β2) (Homo sapiens, UniProt P01903+Q30154); assay type: binding
T10 construct: expressed in transfected cells; host or cells: L416.3 (fibroblasts) or GM3107

[11] = biological target: T11, DRB1*0401 (DR4w4) (Homo sapiens, UniProt P01903+P01911, A100K/A169T/F76Y/I96L/K127E/L162R/M171V/N62H/P40V/Q125Y/R42H/S133A/S149N/S66Y/V115G/V209L/W38E); experiment: HLA class II peptide binding assay; settings: Table XIXb; DR4w4
T11 construct: endogenous in cells; host or cells: Preiss
T11 sequence (P01903 26-254 partner, other chains not shown): as above

[12] = biological target: T12, DRB1*1201 (DR5w12) (Homo sapiens, UniProt P01903+P01911, A100R/A169T/D57E/D86V/F55L/H45Y/K41T/L162R/M171V/P40S/Q125H/Q178H/Q39Y/Q99D/R42G/S66L/T262R/V114A/V67L/W38E/Y59H/Y61H/Y89S); experiment: HLA class II peptide binding assay; settings: Table XIXb; DR5w12
T12 construct: endogenous in cells; host or cells: Herluf

[13] = DR3a motif peptides, exemplary 15-mer containing the core sequence

T1 sequence (P01903 26-254, other chains not shown): as the sequence (P01903 26-254 partner, other chains not shown) above

## CC(C)C[C@H](NC(=O)[C@H](CC(N)=O)NC(=O)[C@H](CS)NC(=O)[C@@H](N)CCCCN)C(=O)N[C@@H](Cc1ccc(O)cc1)C(=O)N[C@@H](C)C(=O)N[C@@H](CC(=O)O)C(=O)N[C@@H](CO)C(=O)N[C@@H](C)C(=O)N[C@@H](Cc1c[nH]c2ccccc12)C(=O)N[C@@H](CCC(=O)O)C(=O)N[C@@H](CC(N)=O)C(=O)N[C@H](C(=O)N[C@@H](CCCCN)C(=O)N[C@@H](CC(N)=O)C(=O)O)C(C)C [Peptide 35.0172]
[1]
  IC50: 11.1 µM
[2]
  IC50: 18.2 µM
[3]
  IC50: 23.4 µM
[4]
  IC50: > 20 µM
[5]
  IC50: > 20 µM
[6]
  IC50: > 20 µM
[7]
  IC50: > 20 µM
[8]
  IC50: 0.857 µM
[8]; binding to DR3, Table XXXIV
  Alleles bound (DR3): DR3

## LGNVSTVLL
[9]
  DR4w15 binding data: 0.0360
[2]
  DR2w2β1 binding data: 0.0240
[10]
  DR2w2β2 binding data: 0.0013
[3]
  DR1 binding data: 0.0430
[4]
  DR8w2 binding data: 0.0012
[5]
  DR7 binding data: 0.4300
[11]
  DR4w4 binding data: 0.0065
[12]
  DR5w12 binding data: 0.0001
[6]
  DR9 binding data: 0.5300
[7]
  DR5w11 binding data: 0.0005
[8]
  DR3 binding data: 0.0059

## VNHAVPLAM
[9]
  DR4w15 binding data: 0.0400
[4]
  DR8w2 binding data: 0.200
[11]
  DR4w4 binding data: 3.900
[6]
  DR9 binding data: 4.000
[8]
  DR3 binding data: 0.2300

## LYADSAWEN
[1]; [13]
  DR6w19 binding information: 0.0003
[2]; [13]
  DR2w2β1 binding information: 0.0005
[10]
  DR2w2β2 binding information: -0.0010
[3]; [13]
  DR1 binding information: 0.0002
[4]
  DR8w2 binding information: -0.0009
[5]
  DR7 binding information: -0.0014
[7]
  DR5w11 binding information: -0.0006
[8]; [13]
  DR3 binding information: 0.3500

## LALFFIIFN
[1]
  DR6w19 binding data: -0.0002
[9]
  DR4w15 binding data: 0.0100
[2]
  DR2w2β1 binding data: 0.0180
[10]
  DR2w2β2 binding data: -0.0021
[3]
  DR1 binding data: 0.0006
[4]
  DR8w2 binding data: -0.0007
[5]
  DR7 binding data: 0.0056
[11]
  DR4w4 binding data: 0.0047
[12]
  DR5w12 binding data: 0.0002
[6]
  DR9 binding data: -0.0018
[7]
  DR5w11 binding data: -0.0005
[8]
  DR3 binding data: -0.0043

## IQDSLKESR
[1]; Malaria DR3b motif peptides
  DR6w19 binding information: -0.0002
[2]; Malaria DR3b motif peptides
  DR2w2β1 binding information: 0.0040
[10]
  DR2w2β2 binding information: -0.0018
[3]; Malaria DR3b motif peptides
  DR1 binding information: -0.0001
[4]
  DR8w2 binding information: 0.0012
[5]
  DR7 binding information: -0.0014
[7]
  DR5w11 binding information: -0.0006
[8]; Malaria DR3b motif peptides
  DR3 binding information: 0.8400

## LATSVLAGL
[1]
  DR6w19 binding data: 0.0072
[9]
  DR4w15 binding data: 0.1200
[2]
  DR2w2β1 binding data: 0.0018
[10]
  DR2w2β2 binding data: 0.0700
[3]
  DR1 binding data: 1.2000
[4]
  DR8w2 binding data: 0.1300
[5]
  DR7 binding data: 0.6500
[11]
  DR4w4 binding data: 3.2000
[12]
  DR5w12 binding data: 0.0073
[6]
  DR9 binding data: 2.6000
[7]
  DR5w11 binding data: 0.0210
[8]
  DR3 binding data: 0.0010
